Laboratory results as given in the supplement of paper PMC9876800.

These substances were tested on peptide library, one residue held at a place counted from the S/T acceptor (assay: relative phosphorylation of the sub-library (ratio to the mean residue at this position); human; higher = residue favoured). Settings: P fixed; at -4.
Method in brief: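 Purified recombinant kinases (human or orthologue constructs) were incubated in 384-well plates with biotinylated degenerate peptide sub-libraries, each fixing one residue at one position around a central Ser/Thr. Peptides were at 50 μM, with 50 μM ATP spiked with γ-32P-ATP, for 90 min under kinase-specific conditions. Spots on streptavidin membranes were phosphorimaged and quantified by densitometry. Relative sub-library phosphorylation is a ratio to the mean residue at that position.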

STK10, construct: aa18-317, sequence (O94804 18-317, looked up): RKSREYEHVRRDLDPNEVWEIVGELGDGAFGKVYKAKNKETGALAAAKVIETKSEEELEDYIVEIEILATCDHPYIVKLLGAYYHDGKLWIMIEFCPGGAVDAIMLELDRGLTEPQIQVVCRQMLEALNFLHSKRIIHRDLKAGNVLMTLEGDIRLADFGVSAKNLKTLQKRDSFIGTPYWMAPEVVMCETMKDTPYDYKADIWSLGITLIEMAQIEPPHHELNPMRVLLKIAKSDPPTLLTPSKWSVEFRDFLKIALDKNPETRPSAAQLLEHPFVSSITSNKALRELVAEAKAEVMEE
CSNK2A1, construct: Full length, sequence (P68400 whole entry, looked up): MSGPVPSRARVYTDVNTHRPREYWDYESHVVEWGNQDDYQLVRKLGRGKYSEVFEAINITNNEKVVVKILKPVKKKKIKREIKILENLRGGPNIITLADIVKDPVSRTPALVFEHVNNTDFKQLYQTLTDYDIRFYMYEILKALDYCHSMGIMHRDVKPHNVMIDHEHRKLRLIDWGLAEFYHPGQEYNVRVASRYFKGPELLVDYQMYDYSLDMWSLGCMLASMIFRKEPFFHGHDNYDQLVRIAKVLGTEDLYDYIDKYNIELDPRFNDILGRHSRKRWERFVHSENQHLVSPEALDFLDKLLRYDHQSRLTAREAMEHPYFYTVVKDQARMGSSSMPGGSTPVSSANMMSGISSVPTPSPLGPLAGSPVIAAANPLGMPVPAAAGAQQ
PAK2, construct: aa3-end, sequence (Q13177 3-524, looked up): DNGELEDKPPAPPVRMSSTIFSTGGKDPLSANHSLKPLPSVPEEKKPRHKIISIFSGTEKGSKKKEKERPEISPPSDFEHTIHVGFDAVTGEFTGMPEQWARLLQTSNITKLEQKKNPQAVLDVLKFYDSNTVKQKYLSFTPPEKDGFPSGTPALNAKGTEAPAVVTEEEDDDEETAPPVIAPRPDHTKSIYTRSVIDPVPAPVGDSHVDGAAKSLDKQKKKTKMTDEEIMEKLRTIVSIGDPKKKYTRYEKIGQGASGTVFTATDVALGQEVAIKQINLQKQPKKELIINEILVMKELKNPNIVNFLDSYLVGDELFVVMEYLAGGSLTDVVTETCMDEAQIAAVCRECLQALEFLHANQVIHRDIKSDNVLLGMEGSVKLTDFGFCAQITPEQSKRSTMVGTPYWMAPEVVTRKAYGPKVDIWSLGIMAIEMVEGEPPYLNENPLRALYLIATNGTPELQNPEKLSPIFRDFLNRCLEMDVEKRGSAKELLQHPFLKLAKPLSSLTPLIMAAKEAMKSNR
NEK1, construct: aa1-505, sequence (Q96PY6 1-505, looked up): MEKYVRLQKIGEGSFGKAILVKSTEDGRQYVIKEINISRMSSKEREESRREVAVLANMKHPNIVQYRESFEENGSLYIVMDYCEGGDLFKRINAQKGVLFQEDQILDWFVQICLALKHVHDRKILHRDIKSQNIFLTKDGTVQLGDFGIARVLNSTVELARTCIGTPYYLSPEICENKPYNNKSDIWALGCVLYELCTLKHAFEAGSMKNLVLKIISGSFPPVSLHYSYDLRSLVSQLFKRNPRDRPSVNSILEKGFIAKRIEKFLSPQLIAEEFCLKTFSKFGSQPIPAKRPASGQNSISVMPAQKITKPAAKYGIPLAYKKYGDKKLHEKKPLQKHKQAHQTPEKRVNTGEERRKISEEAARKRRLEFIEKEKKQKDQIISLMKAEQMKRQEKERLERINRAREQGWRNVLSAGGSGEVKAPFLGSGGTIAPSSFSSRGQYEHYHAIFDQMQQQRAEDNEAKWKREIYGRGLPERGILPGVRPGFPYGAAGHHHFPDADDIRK

Substance | relative phosphorylation
STK39, construct: Full length (from UniProt Q9UEW8) | 1.05

Same assay, conditions: P fixed; at -5

Substance | relative phosphorylation
CSNK2A1, construct: Full length (from UniProt P68400) | 0.751
NEK1, construct: aa1-505 (from UniProt Q96PY6) | 1.4
PAK2, construct: aa3-end (from UniProt Q13177) | 0.926
PRKCG, construct: Full length (from UniProt P05129) | 0.937
STK10, construct: aa18-317 (from UniProt O94804) | 1.09
STK39, construct: Full length (from UniProt Q9UEW8) | 1.24

Same assay, conditions: Q fixed; at +1

Substance | relative phosphorylation
CSNK2A1, construct: Full length (from UniProt P68400) | 0.352
NEK1, construct: aa1-505 (from UniProt Q96PY6) | 1.05
PAK2, construct: aa3-end (from UniProt Q13177) | 1.06
PRKCG, construct: Full length (from UniProt P05129) | 1.15
STK10, construct: aa18-317 (from UniProt O94804) | 0.763
STK39, construct: Full length (from UniProt Q9UEW8) | 0.661

Same assay, conditions: Q fixed; at +2

Substance | relative phosphorylation
CSNK2A1, construct: Full length (from UniProt P68400) | 0.68
NEK1, construct: aa1-505 (from UniProt Q96PY6) | 0.706
PAK2, construct: aa3-end (from UniProt Q13177) | 0.797
PRKCG, construct: Full length (from UniProt P05129) | 0.688
STK10, construct: aa18-317 (from UniProt O94804) | 0.952
STK39, construct: Full length (from UniProt Q9UEW8) | 1.03

Same assay, conditions: Q fixed; at +3

Substance | relative phosphorylation
CSNK2A1, construct: Full length (from UniProt P68400) | 0.4
NEK1, construct: aa1-505 (from UniProt Q96PY6) | 0.724
PAK2, construct: aa3-end (from UniProt Q13177) | 0.754
PRKCG, construct: Full length (from UniProt P05129) | 0.856
STK10, construct: aa18-317 (from UniProt O94804) | 0.954
STK39, construct: Full length (from UniProt Q9UEW8) | 1.19

Same assay, conditions: Q fixed; at +4

Substance | relative phosphorylation
CSNK2A1, construct: Full length (from UniProt P68400) | 0.832
NEK1, construct: aa1-505 (from UniProt Q96PY6) | 1.01
PAK2, construct: aa3-end (from UniProt Q13177) | 1.08
PRKCG, construct: Full length (from UniProt P05129) | 1.09
STK10, construct: aa18-317 (from UniProt O94804) | 1.17
STK39, construct: Full length (from UniProt Q9UEW8) | 1.19

Same assay, conditions: Q fixed; at -1

Substance | relative phosphorylation
CSNK2A1, construct: Full length (from UniProt P68400) | 0.922
NEK1, construct: aa1-505 (from UniProt Q96PY6) | 0.889
PAK2, construct: aa3-end (from UniProt Q13177) | 1.08
PRKCG, construct: Full length (from UniProt P05129) | 1.08
STK10, construct: aa18-317 (from UniProt O94804) | 1.03
STK39, construct: Full length (from UniProt Q9UEW8) | 0.963

Same assay, conditions: Q fixed; at -2

Substance | relative phosphorylation
CSNK2A1, construct: Full length (from UniProt P68400) | 0.678
NEK1, construct: aa1-505 (from UniProt Q96PY6) | 1.04
PAK2, construct: aa3-end (from UniProt Q13177) | 0.572
PRKCG, construct: Full length (from UniProt P05129) | 1.21
STK10, construct: aa18-317 (from UniProt O94804) | 0.777
STK39, construct: Full length (from UniProt Q9UEW8) | 1.91

Same assay, conditions: Q fixed; at -3

Substance | relative phosphorylation
CSNK2A1, construct: Full length (from UniProt P68400) | 0.869
NEK1, construct: aa1-505 (from UniProt Q96PY6) | 0.668
PAK2, construct: aa3-end (from UniProt Q13177) | 0.827
PRKCG, construct: Full length (from UniProt P05129) | 0.934
STK10, construct: aa18-317 (from UniProt O94804) | 1.02
STK39, construct: Full length (from UniProt Q9UEW8) | 1.09

Same assay, conditions: Q fixed; at -4

Substance | relative phosphorylation
CSNK2A1, construct: Full length (from UniProt P68400) | 0.867
NEK1, construct: aa1-505 (from UniProt Q96PY6) | 0.799
PAK2, construct: aa3-end (from UniProt Q13177) | 0.901
PRKCG, construct: Full length (from UniProt P05129) | 1.05
STK10, construct: aa18-317 (from UniProt O94804) | 0.956
STK39, construct: Full length (from UniProt Q9UEW8) | 0.959

Same assay, conditions: Q fixed; at -5

Substance | relative phosphorylation
CSNK2A1, construct: Full length (from UniProt P68400) | 0.808
NEK1, construct: aa1-505 (from UniProt Q96PY6) | 0.889
PAK2, construct: aa3-end (from UniProt Q13177) | 0.889
PRKCG, construct: Full length (from UniProt P05129) | 0.887
STK10, construct: aa18-317 (from UniProt O94804) | 0.82
STK39, construct: Full length (from UniProt Q9UEW8) | 0.892

Same assay, conditions: R fixed; at +1

Substance | relative phosphorylation
CSNK2A1, construct: Full length (from UniProt P68400) | 0.221
NEK1, construct: aa1-505 (from UniProt Q96PY6) | 1.51
PAK2, construct: aa3-end (from UniProt Q13177) | 1.19
PRKCG, construct: Full length (from UniProt P05129) | 1.98
STK10, construct: aa18-317 (from UniProt O94804) | 1.18
STK39, construct: Full length (from UniProt Q9UEW8) | 0.517

Same assay, conditions: R fixed; at +2

Substance | relative phosphorylation
CSNK2A1, construct: Full length (from UniProt P68400) | 0.426
NEK1, construct: aa1-505 (from UniProt Q96PY6) | 2.21
PAK2, construct: aa3-end (from UniProt Q13177) | 0.658
PRKCG, construct: Full length (from UniProt P05129) | 4.33
STK10, construct: aa18-317 (from UniProt O94804) | 3.13
STK39, construct: Full length (from UniProt Q9UEW8) | 0.824

Same assay, conditions: R fixed; at +3

Substance | relative phosphorylation
CSNK2A1, construct: Full length (from UniProt P68400) | 0.258
NEK1, construct: aa1-505 (from UniProt Q96PY6) | 1.63
PAK2, construct: aa3-end (from UniProt Q13177) | 0.657
PRKCG, construct: Full length (from UniProt P05129) | 2.43
STK10, construct: aa18-317 (from UniProt O94804) | 2.06
STK39, construct: Full length (from UniProt Q9UEW8) | 1.06

Same assay, conditions: R fixed; at +4

Substance | relative phosphorylation
CSNK2A1, construct: Full length (from UniProt P68400) | 0.553
NEK1, construct: aa1-505 (from UniProt Q96PY6) | 1.38
PAK2, construct: aa3-end (from UniProt Q13177) | 0.821
PRKCG, construct: Full length (from UniProt P05129) | 1.97
STK10, construct: aa18-317 (from UniProt O94804) | 1.63
STK39, construct: Full length (from UniProt Q9UEW8) | 1.18

Same assay, conditions: R fixed; at -1

Substance | relative phosphorylation
CSNK2A1, construct: Full length (from UniProt P68400) | 0.435
NEK1, construct: aa1-505 (from UniProt Q96PY6) | 1.57
PAK2, construct: aa3-end (from UniProt Q13177) | 1.72
PRKCG, construct: Full length (from UniProt P05129) | 2.85
STK10, construct: aa18-317 (from UniProt O94804) | 1.96
STK39, construct: Full length (from UniProt Q9UEW8) | 1.04

Same assay, conditions: R fixed; at -2

Substance | relative phosphorylation
CSNK2A1, construct: Full length (from UniProt P68400) | 0.589
NEK1, construct: aa1-505 (from UniProt Q96PY6) | 1.27
PAK2, construct: aa3-end (from UniProt Q13177) | 7.1
PRKCG, construct: Full length (from UniProt P05129) | 2.99
STK10, construct: aa18-317 (from UniProt O94804) | 1.72
STK39, construct: Full length (from UniProt Q9UEW8) | 0.529

Same assay, conditions: R fixed; at -3

Substance | relative phosphorylation
CSNK2A1, construct: Full length (from UniProt P68400) | 0.657
NEK1, construct: aa1-505 (from UniProt Q96PY6) | 0.919
PAK2, construct: aa3-end (from UniProt Q13177) | 3.91
PRKCG, construct: Full length (from UniProt P05129) | 3.78
STK10, construct: aa18-317 (from UniProt O94804) | 2.01
STK39, construct: Full length (from UniProt Q9UEW8) | 0.677

Same assay, conditions: R fixed; at -4

Substance | relative phosphorylation
CSNK2A1, construct: Full length (from UniProt P68400) | 0.87
NEK1, construct: aa1-505 (from UniProt Q96PY6) | 1.08
PAK2, construct: aa3-end (from UniProt Q13177) | 2.26
PRKCG, construct: Full length (from UniProt P05129) | 1.94
STK10, construct: aa18-317 (from UniProt O94804) | 1.58
STK39, construct: Full length (from UniProt Q9UEW8) | 0.831

Same assay, conditions: R fixed; at -5

Substance | relative phosphorylation
CSNK2A1, construct: Full length (from UniProt P68400) | 0.943
NEK1, construct: aa1-505 (from UniProt Q96PY6) | 1.15
PAK2, construct: aa3-end (from UniProt Q13177) | 2.31
PRKCG, construct: Full length (from UniProt P05129) | 1.71
STK10, construct: aa18-317 (from UniProt O94804) | 1.73
STK39, construct: Full length (from UniProt Q9UEW8) | 0.96

Same assay, conditions: V fixed; at +1

Substance | relative phosphorylation
CSNK2A1, construct: Full length (from UniProt P68400) | 0.249
NEK1, construct: aa1-505 (from UniProt Q96PY6) | 0.958
PAK2, construct: aa3-end (from UniProt Q13177) | 1.2
PRKCG, construct: Full length (from UniProt P05129) | 1.15
STK10, construct: aa18-317 (from UniProt O94804) | 0.956
STK39, construct: Full length (from UniProt Q9UEW8) | 1.84

Same assay, conditions: V fixed; at +2

Substance | relative phosphorylation
CSNK2A1, construct: Full length (from UniProt P68400) | 0.923
NEK1, construct: aa1-505 (from UniProt Q96PY6) | 0.914
PAK2, construct: aa3-end (from UniProt Q13177) | 1.01
PRKCG, construct: Full length (from UniProt P05129) | 0.48
STK10, construct: aa18-317 (from UniProt O94804) | 0.56
STK39, construct: Full length (from UniProt Q9UEW8) | 1.04

Same assay, conditions: V fixed; at +3

Substance | relative phosphorylation
CSNK2A1, construct: Full length (from UniProt P68400) | 0.263
